Test results as given in patent US20150093787.

Target: Int-His6 (bacteriophage lambda integrase, with IHF; BP Clonase) (Bacteriophage lambda) (UniProt P03700+P0A6X7+P0A6Y1)
Assay: cell_activity
Settings: degenerate pool vs attB1-LacZa-attB2, overnight

Sequence of UniProt P03700 (P03700 whole entry, chain 1 of 3): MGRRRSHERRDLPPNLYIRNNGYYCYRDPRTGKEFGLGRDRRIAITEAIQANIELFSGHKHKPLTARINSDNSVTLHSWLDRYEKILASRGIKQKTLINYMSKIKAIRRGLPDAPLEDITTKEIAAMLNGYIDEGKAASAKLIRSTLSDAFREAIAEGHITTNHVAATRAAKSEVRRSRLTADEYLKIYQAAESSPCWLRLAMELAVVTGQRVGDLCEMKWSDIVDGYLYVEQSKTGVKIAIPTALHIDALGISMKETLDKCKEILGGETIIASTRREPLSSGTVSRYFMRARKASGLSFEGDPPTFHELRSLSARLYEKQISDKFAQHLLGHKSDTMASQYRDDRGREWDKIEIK
Sequence of UniProt P03700 (P0A6X7 2-99, chain 2 of 3): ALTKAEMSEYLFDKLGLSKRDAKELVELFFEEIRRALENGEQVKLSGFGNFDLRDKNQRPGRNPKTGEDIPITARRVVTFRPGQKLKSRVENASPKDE
Sequence of UniProt P03700 (P0A6Y1 whole entry, chain 3 of 3): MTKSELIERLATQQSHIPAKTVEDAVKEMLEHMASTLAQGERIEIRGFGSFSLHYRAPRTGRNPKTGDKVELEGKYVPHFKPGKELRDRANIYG

Sequence | binding signal [%]
GGGGACAAGTTTGTACAAAAAAGCNNNNN (double strand) [attB1n21-25] | 14
GGGGACCACTTTGTACAAGNNNNNTGGGT (double strand) [attB2n16-20] | 0.9
GGGGACCACTTTGTACAAGAAAGCNNNNN (double strand) [attB2n21-25] | 21
GGGGACAAGTTTGTACAAANNNNNAGGCT (double strand) [attB1n16-20] | 1.5
